Experimental data from patent US20120052007A1, “PERIPHERAL BLOOD SPARC BINDING ANTIBODIES AND USES THEREOF” (ABRAXIS BIOSCIENCE, LLC, priority 2010, published 2012).
Entries after “also recorded” stand apart in the source; their conditions may differ.

What was measured:
HT29 (colon) = conditions: for Tumor growth inhibition (TGI): HT29 xenograft, versus control group at euthanasia of control animals
Excerpt: Female and male athymic NCr-nu mice between 5 and 6 weeks of age weighing approximately 20 g were purchased from Harlan, Inc. (Madison, Wis., USA). Human cancer cells HT29 (colon), PC3 (prostate), and MDA-MB-231 (breast) were propagated in cell culture and implanted subcutaneously at one million cells per flank of female (for MDA-MB-231 and HT29) or male (for PC3 prostate tumor) nude mice and allowed to grow to approximately 60-100 mm^3 before treatment was initiated. Treatments included 5-fluorouracil (5FU), docetaxel (Taxotere®), albumin-bound paclitaxel (nab-paclitaxel), nab-paclitaxel plus suntinib malate (Sutent®), or nab-paclitaxel plus bevacizumab (Avastin®) with or without exogenously administered SPARC). Control animals for each xenograft were administered PBS. The longest (length) and shortest (width) tumor diameters (millimeter) and tumor depth were measured twice weekly. The tumor volume was calculated with the formula: tumor volume (mm3)=width×length×depth. Tumor growth inhibition (TGI) was defined as the percentage of tumor volume reduction compared with the control group at the time of euthanasia for the control animals. Tumor doubling time was defined as the time required for the tumor volume to double […]. Animal weights were measured twice weekly. Statistical analysis was performed using the Prism program (GraphPad, San Diego, Calif., USA). Analysis of variance (ANOVA) statistic was used to compare tumor growth curves.

[1] = molecular target: T1, recombinant human SPARC (Bio1-SPARC) (Homo sapiens, UniProt P09486); test: ELISA binding to recombinant human SPARC (Bio1-SPARC); conditions: for binding to Bio1-SPARC compared with HTI-SPARC (ELISA): Bio1-SPARC versus human platelet SPARC (FIG. 9)
T1 sequence (P09486 18-303): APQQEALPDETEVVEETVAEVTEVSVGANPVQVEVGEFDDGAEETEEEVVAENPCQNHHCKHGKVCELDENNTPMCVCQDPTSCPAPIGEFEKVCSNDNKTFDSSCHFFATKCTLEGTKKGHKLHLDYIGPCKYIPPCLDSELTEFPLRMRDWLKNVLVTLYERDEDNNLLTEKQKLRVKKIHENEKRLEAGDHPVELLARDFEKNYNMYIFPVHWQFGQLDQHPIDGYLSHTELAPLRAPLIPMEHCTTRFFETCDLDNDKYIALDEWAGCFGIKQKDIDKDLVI
Procedure: The ability of Imm1 through Imm12 (the mouse-derived anti-human SPARC antibodies) to bind recombinant human SPARC (Bio 1-SPARC) was characterized by multiple ELISA assays performed at various stages of purification. FIG. 7 presents the results of an ELISA assay performed on a serial dilution (1:1, 1:10, and 1:100) of antibody supernatants prior to purification. […] Another ELISA assay was performed with the purified antibodies (FIG. 8) at concentrations of 0.04 μg/mL, 0.2 μg/mL, 1 μg/mL, and 5 μg/mL. […] An additional ELISA was performed to compare the binding of the mouse derived Immseries antibodies to two different varieties of SPARC: Bio1-SPARC, and human platelet SPARC (HTI-SPARC) (FIG. 9).
ELISA assays were also used to characterize the SPARC binding of the fully human SPARC binding antibodies, Imm13 and Imm14. […] Surface plasmon resonance binding assays, performed on the Biacore 3000® (GE/Biacore International AB, Uppsala, Sweden), tested the binding of Fab 16 to both varieties of SPARC immobilized on a sensorchip (FIGS. 11 and 12).

denatured human SPARC = molecular target: T2, denatured human SPARC (Homo sapiens, UniProt P09486); test: Western blot against denatured SPARC; type: binding; conditions: SDS polyacrylamide gel
T2 sequence (P09486 18-303): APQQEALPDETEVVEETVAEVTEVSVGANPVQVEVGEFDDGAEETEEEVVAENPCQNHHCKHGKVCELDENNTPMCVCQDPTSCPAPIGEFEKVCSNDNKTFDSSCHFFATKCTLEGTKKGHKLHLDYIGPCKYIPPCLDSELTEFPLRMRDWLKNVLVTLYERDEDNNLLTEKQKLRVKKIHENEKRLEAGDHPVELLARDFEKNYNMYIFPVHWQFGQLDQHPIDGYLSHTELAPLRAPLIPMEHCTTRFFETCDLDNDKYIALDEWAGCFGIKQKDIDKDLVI
Excerpt: Western blotting was used to determine whether the Imm series antibodies bind to linear or conformational epitopes. In this analysis, SPARC protein was run on a polyacrylamide gel in the presence of SDS. Accordingly, the SPARC protein on the gel was in its denatured form. The Imm series antibodies were used as primary antibodies and were then probed with goat anti-mouse IgG. BSA was used as a negative control.

mouse SPARC = molecular target: T3, mouse SPARC (Mus musculus, UniProt P07214); test: ELISA binding to murine SPARC (FIG. 16); conditions: ELISA (FIG. 16)
T3 sequence (P07214 18-302): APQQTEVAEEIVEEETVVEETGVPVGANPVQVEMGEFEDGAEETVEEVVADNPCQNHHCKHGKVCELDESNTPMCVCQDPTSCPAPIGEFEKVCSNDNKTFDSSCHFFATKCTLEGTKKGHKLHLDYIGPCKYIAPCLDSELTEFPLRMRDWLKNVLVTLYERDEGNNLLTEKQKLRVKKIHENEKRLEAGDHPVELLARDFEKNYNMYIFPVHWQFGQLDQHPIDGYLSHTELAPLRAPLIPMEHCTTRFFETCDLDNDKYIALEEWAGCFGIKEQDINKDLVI

[2] = test system: LL/2 (Lewis Lung Carcinoma); test: LL/2 Lewis Lung Carcinoma survival / lung metastasis model; type: in vivo, mice; conditions: 200 μg/mouse i.p. twice weekly for 4 weeks, versus mouse control IgG
Procedure: C57BL male mice (approx. 6 weeks old) were weighed, and then injected intravenously with approximately 1×10^6 cells (approximately 0.1 mL) of LL/2 (Lewis Lung Carcinoma) with 25-gauge needle. A minimum of 10 animals was used per group. Twice weekly for 4 weeks, each animal in all groups received 200 μg/mouse of a test antibody or mouse IgG. These test articles/antibodies were dosed via intra-abdominal injection into the peritoneal cavity with a 25-27 gauge needle. The first dose was administered within 30 minutes of tumor cell injection.
Animals were weighed prior to tumor cell injection, and twice weekly prior to dosing. All animals were examined twice daily for mortality/morbidity. At the end of the experiment, the mice were killed, and primary tumors and lungs were removed, fixed, and embedded. Euthanized animals and any animals found dead prior to rigor mortis were necropsied. Plasma and lungs from all animals were collected and weighed at termination. Lungs were infused with and then immersed in 10% Neutral buffered formalin. Tissues were stored for additional gross and histopathologic analysis.
Animals were administered either mHTI, Imm12, or Imm14. A negative control group was administered mIgG. The antibodies were formulated in PBS and were administered in at dose of 200 μg/mouse, twice weekly, for four weeks. The survival of the animals was then recorded over […].

SPARC [3] = molecular target: T4, SPARC (Homo sapiens, UniProt P09486); test: ELISA binding to human SPARC (FIG. 16); conditions: ELISA (FIG. 16)
T4 sequence (P09486 18-303): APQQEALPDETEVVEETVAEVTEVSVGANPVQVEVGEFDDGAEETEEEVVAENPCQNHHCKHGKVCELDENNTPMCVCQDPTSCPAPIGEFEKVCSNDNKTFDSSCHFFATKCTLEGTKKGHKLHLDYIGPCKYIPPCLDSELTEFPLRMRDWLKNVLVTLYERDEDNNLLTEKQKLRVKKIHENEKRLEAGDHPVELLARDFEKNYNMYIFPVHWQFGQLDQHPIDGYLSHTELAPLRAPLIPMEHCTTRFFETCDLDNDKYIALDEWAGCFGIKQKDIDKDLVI

HT29 colon xenografts = test: Tumor localization of Alexa 680 labeled antibodies in HT29 xenografts; type: in vivo, mice; conditions: 200 ug/mouse i.v. day 1, Alexa 680 label, followed 36 days
Procedure: Nude mice implanted with subcutaneous HT29 colon xenografts were treated with Imm series antibodies labeled with labeled with Alexa 680 fluorescent dye at dose of 200 ug/mouse. The labeled Imm antibodies were formulated in saline and administered intravenously on day 1. The fluorescent signal was followed in these mice over the course of 36 days.

[4] = test system: recombinant human SPARC protein; test: Tube Formation Assay (AngioKit) with SPARC and SPARC binding antibodies; type: cell-based; conditions: 300 μg/mL antibody with 10 μg/mL recombinant human SPARC
Procedure: This assay was performed using the TCS Cellworks human AngioKit model kit (TCS-ZHA-1000, TCS Cell Works, Buckingham, UK) as described in Example 10 above. The media contained 10 μg/mL recombinant human SPARC protein. The media also contained 300 μg/mL of one of the above prepared mouse SPARC binding monoclonal antibodies (Imm12, Imm14, mHTI), or a control (mouse IgG).
To examine the effect of SPARC on tubule formation, and interference with that function by SPARC binding monoclonal antibodies, the number of tubules formed and their length was evaluated by light microscopy.

SPARC [5] = molecular target: T4, SPARC; test: ELISA comparing Imm11, Imm12, Imm13, Imm14 binding to human SPARC; conditions: ELISA (FIG. 13)
Procedure: An ELISA assay was also performed to directly compare the SPARC binding capabilities of selected mouse-derived anti human SPARC antibodies, Imm11 and Imm12, to the fully human Imm13 and Imm14, the results of which are presented in FIG. 13.

[6] = antibody supernatants prior to purification, dilutions 1:1, 1:10, 1:100 (FIG. 7)
[7] = purified antibodies at 0.04, 0.2, 1 and 5 μg/mL (FIG. 8)

Molecule: bevacizumab: anti-VEGF antibody, Avastin
- Tumor growth inhibition (TGI) (HT29 (colon)): 75%

Molecule: O=c1[nH]cc(F)c(=O)[nH]1 [Imm 5-FU, 5-fluorouracil]
- Tumor growth inhibition (TGI) (HT29 (colon)): 89.8%
- body weight / tolerability (HT29 (colon); mouse, in vivo): without decrease in body weight

B1: Imm6: mouse-derived anti-human SPARC antibody from hybridoma, IgG1 (κ) (antibody, V domains shown)
VH: TVTGYSITSDSAWNWIRQFPGNKLEWMGHISYSGSTSYNPSLKSRISITRDTSKDQFFLQLNSVTTEDTATYYCARGSYYGNFGFTYWGQGT
VL: GETVTITCQASENIASDLAWYQKEGRSPQLLVYEARNLADGVPSRFSGSGSDTLYSLNIHSLQSEDVARYYCQHYYGTPWTFGGGTKPRAN
- Bio1-SPARC binding (ELISA) [1, 6]: highest Bio1-SPARC binding

B2: Imm12: mouse-derived anti-human SPARC antibody from hybridoma, IgG1 (κ), SEQ ID NOs 7 and 14 (antibody, V domains shown)
VH: KASGYTFTKYGMNWVKQAPGKGLQWMGWINTNTGEPTYAEEFKGRFAFSLETSASTAYLQINNLENADSATYFCTRGSSYFDYWGQGTTVTV
VL: GQRATISYRASKSVSTSGYSYMHWNQQKPGQPPRLLIYLVSNLESGVPARFSGSGSGTDFTLNIHPVEEEDAATYYCQHIRELTRSVEAPSS
- binding to denatured SPARC (denatured human SPARC): binding
- binding to mouse SPARC (mouse SPARC): not mouse SPARC
- binding to Bio1-SPARC compared with HTI-SPARC (ELISA) [1]: bind both varieties of human SPARC equally well
- Bio1-SPARC binding (ELISA) [1, 6]: highest Bio1-SPARC binding; also recorded: highest binding overall
- Bio1-SPARC binding (ELISA) [1, 7]: highest Bio1-SPARC binding
- inhibition of lung LL/2 metastasis [2]: did not inhibit lung LL/2 metastasis
- binding to human SPARC (SPARC [3]): specifically bind to human SPARC
- localization at the tumor site (HT29 colon xenografts): do not localize at the tumor site
- effect on SPARC-induced tubule formation [4]: only very slight formation of very short tubules

B3: Imm10: mouse-derived anti-human SPARC antibody from hybridoma, IgG1 (κ) (antibody, V domains shown)
VH: AASGFTFSYYGMSWVRQTPDKRLEWVATISSGGSYTYYPDSVKGRFTISRDNSENTLYLQMNSLKSEDTAMYFCARRGSSGDYYGMDYWGQG
VL: GEKVTMSCKSSQSLLYSNSQKNYLAWYQQKPGQSPKLLIYWASTRESGVPPRFTGSGSGTDFSLTISSVKAEDLAVYYCQQYYSFPRTFGGG
- Bio1-SPARC binding (ELISA) [1, 6]: highest Bio1-SPARC binding

B4: Imm13: fully human anti-human SPARC antibody created from Fab6, IgG1 (κ) (antibody, V domains shown)
VH: QVQLVQSGGGLVQPGGSLRLSCAASGFTVSSNYMSWVRQAPGKGLEWVSVIYSGGSTYYADSVKGRFTISRDNSKNTLYLQMNSLRAEDTAVYYCARGIAAAGLDYWGQGTLVTVSP
VL: ELVLTQPPSVSAAPGQKVTISCSGSSSNIGNNYVYWYQQLPGTAPKLLIYRNNQRPSGVPDRFSGSKSGTSASLAISGLRSEDEADYYCAAWDDSLSGWVFGGGTKLTVL
- affinity for SPARC relative to mouse derived Imm11 and Imm12 (SPARC [5]): higher affinity

B5: Imm4: mouse-derived anti-human SPARC antibody from hybridoma, IgG1 (κ) (antibody, V domains shown)
VH: AASGFAFSSYDMSWVRQTPEKRLEWVAYITSGGGSTYYPDTVKGRFTISRDNAKNTLYLQMSSLKSEDTAMYYCAGSRSWFAYWGQGTTVTV
VL: GEGVSFSCRASQSIGTGIHWYQRRTNGSPRLLIKYASESISGIPSRFSGSGSGTDFTLTINSVESEDIADYYCQQSYSWPLTFGAGTKLELK
- binding to Bio1-SPARC compared with HTI-SPARC (ELISA) [1]: bind Bio1-SPARC significantly better than HTI-SPARC
- Bio1-SPARC binding (ELISA) [1, 6]: highest Bio1-SPARC binding
- Bio1-SPARC binding (ELISA) [1, 7]: highest Bio1-SPARC binding

B6: Imm2: mouse-derived anti-human SPARC antibody from hybridoma, IgG1, 2b (κ) (antibody, V domains shown)
VH: TVTGYSITSDHAWSWIRQFPGNKLEWMGYISYSGSTSYNPSLKSRVSVTRDTSKNHFFLQLNSVTTEDTATYYCARAAFIGGWFAYWGQGTT
VL: GEKVTITCSASSSVSYMHWFQQKPGTSPKLWIYSTPNLASGVPARFSGSGSGTSYSLTISRMEAEDAATYYCQQRSSYPLTFGGGTKLELKQ
- localization at the tumor site (HT29 colon xenografts): localizes well
